{
  "source": "IntAct's records for PubMed 15563508",
  "parents": {"B1": {"name": "Carbonic anhydrase 4 (Homo sapiens), P22748 (parent)", "chain": "MRMLLALLALSAARPSASAESHWCYEVQAESSNYPCLVPVKWGGNCQKDRQSPINIVTTKAKVDKKLGRFFFSGYDKKQTWTVQNNGHSVMMLLENKASISGGGLPAPYQAKQLHLHWSDLPYKGSEHSLDGEHFAMEMHIVHEKEKGTSRNVKEAQDPEDEIAVLAFLVEAGTQVNEGFQPLVEALSNIPKPEMSTTMAESSLLDLLPKEEKLRHYFRYLGSLTTPTCDEKVVWTVFREPIQLHREQILAFSQKLYYDKEQTVSMKDNVRPLQQLGQRTVIKSGAPGRPLPWALPALLGPMLACLLAGFLR", "partner": "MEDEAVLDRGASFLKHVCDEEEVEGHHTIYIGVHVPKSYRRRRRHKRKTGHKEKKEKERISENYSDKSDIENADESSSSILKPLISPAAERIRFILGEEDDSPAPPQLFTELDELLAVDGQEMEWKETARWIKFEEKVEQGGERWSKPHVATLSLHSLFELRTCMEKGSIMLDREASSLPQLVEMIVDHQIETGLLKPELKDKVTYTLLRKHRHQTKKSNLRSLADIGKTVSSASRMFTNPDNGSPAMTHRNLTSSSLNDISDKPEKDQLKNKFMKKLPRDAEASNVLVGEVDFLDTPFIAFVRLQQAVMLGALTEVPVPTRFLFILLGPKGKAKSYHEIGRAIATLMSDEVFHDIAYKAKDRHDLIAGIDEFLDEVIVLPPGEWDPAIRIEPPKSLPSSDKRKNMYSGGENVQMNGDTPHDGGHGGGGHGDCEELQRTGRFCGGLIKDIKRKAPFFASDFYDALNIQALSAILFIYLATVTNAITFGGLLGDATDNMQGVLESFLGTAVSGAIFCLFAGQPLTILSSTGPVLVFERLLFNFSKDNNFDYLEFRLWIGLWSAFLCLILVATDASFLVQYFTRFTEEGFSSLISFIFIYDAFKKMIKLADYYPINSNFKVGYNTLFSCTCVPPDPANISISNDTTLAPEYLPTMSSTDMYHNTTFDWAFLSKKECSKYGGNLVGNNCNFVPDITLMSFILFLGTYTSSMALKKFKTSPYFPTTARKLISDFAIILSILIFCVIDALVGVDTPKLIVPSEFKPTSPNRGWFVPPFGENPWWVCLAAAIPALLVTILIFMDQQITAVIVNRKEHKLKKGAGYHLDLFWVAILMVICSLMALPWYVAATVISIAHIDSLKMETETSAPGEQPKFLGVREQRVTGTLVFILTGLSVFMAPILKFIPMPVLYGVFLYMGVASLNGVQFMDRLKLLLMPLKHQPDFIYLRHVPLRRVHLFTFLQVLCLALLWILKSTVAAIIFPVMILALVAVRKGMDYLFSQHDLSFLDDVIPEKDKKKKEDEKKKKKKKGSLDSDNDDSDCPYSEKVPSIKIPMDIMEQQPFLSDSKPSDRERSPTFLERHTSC"}},
  "data": [
    {"variants_of": "B1", "conditions": "with s4a4_human SLC4A4, Q9Y6R1", "values": [
      {"variant": "MRMLLALLALSAAWPSASAESHWCYEVQAESSNYPCLVPVKWGGNCQKDRQSPINIVTTKAKVDKKLGRFFFSGYDKKQTWTVQNNGHSVMMLLENKASISGGGLPAPYQAKQLHLHWSDLPYKGSEHSLDGEHFAMEMHIVHEKEKGTSRNVKEAQDPEDEIAVLAFLVEAGTQVNEGFQPLVEALSNIPKPEMSTTMAESSLLDLLPKEEKLRHYFRYLGSLTTPTCDEKVVWTVFREPIQLHREQILAFSQKLYYDKEQTVSMKDNVRPLQQLGQRTVIKSGAPGRPLPWALPALLGPMLACLLAGFLR", "note": "[R14W]", "effect of a mutation on the interaction": "decreasing interaction"}
    ]}
  ]
}
